This series relates to ATP. In words: switch fluorescence ratio, 500 uM ATP over buffer (Cy3 cluster intensity, sum of 5 cycles each) (fold (ratio)); higher = stronger signal-on switching upon ATP binding; sequences stand for … in TCGTCGGCAGCGTCAGATGTGTATAAGAGACAGTTTTTTTTTTTTTTTTTTTTTTTTT…TC. To be noted: aptamer strand: ATP DNA aptamer (quencher-CACCTGGGGGAGTATTGCGGAGGAAGG + anchor), 100 nM annealed; ATP concentration: 500 uM. Put shortly:
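The quencher-labelled ATP aptamer, at 100 nM, was annealed to Cy3-labelled switching-strand clusters on a modified Illumina MiSeq flow-cell. The clusters were imaged in selection buffer, then after 15 min with 500 uM ATP at 22 °C, and this buffer/ATP cycle ran five times with NaOH stripping and re-annealing between runs. Per-cluster fluorescence ratios, summed target-cycle over summed buffer-cycle Cy3 intensity, were averaged per switch-domain sequence. Clusters outside 100-1000 RFU were excluded.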

± gives the standard deviation of the averaged measurements.
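Note: ATP exposure 15 min at 22 °C before imaging.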

For the sequence CGGGATTCTG, the switch fluorescence ratio was found to be 1 ± 0.031.
To TTGGAGGGGT belongs 1.09 ± 0.15; to TAGAGGCGGG, 0.981 ± 0.025; to GGTGGCGTAC, 1.018 ± 0.01.
With CTTCGCTCGA the figure was 1.35 ± 0.07; with AATGGCGCGC, 0.992 ± 0.017; with AAACTTGTGA, 1.02 ± 0.024.
To TCAGGTAGCG belongs 1.004 ± 0.0061; to CCGTTGTATT, 1.12 ± 0.035; to GGAGGCATAT, 1.13 ± 0.039.
On to CTGGTGCATT, for which the switch fluorescence ratio amounted to 1.21 ± 0.11.
Turning to ACATGGGGGC, the switch fluorescence ratio is 1 ± 0.045.
With CTTACGGGAA the figure was 1.15 ± 0.1; with CAATATTAGA, 1.02 ± 0.07.
To GGGGGGAGCT belongs 1.02 ± 0.057; to GCTCAATCTT, 0.967 ± 0.01; to TACTTGTAAT, 1.02 ± 0.055.
With GATTATATTT the figure was 0.997 ± 0.045.
Take ATAATATGGT: the switch fluorescence ratio was 0.9838 ± 0.0036.
To CATCCTGAAT belongs 1.08 ± 0.027; to AGCAAATAGT, 1.28 ± 0.028; to CCGAAGACAG, 3.11 ± 0.21.
To TTACTCGCAT belongs 2.3 ± 1.2; to GGATGAGGGT, 0.986 ± 0.018; to TTGTGGGTCC, 1.013 ± 0.0093.
To ATAAGCTGGT belongs 0.953 ± 0.021; to TCGCTTACAT, 1.0488 ± 0.00048; to CAATACATAT, 1.07 ± 0.023.
With GGCCGTAGCG, the switch fluorescence ratio stood at 0.986 ± 0.025.
With CAGAACCAGG the figure was 1.24 ± 0.06; with GTGGCGTGCT, 0.976 ± 0.045.
Regarding ATGTTAAATT, the switch fluorescence ratio was 0.976 ± 0.014.
With GGGTTTTTGC the figure was 1.04 ± 0.045.
Consider TTAGTATGGA, for which the switch fluorescence ratio was 0.9837 ± 0.0013.
To GAGGAATTTT belongs 0.983 ± 0.0093.
Turning to GCCTAATTTT, the switch fluorescence ratio was found to be 0.984 ± 0.021.
To GGACTGCGGT belongs 0.979 ± 0.022; to CCAGTGGCTA, 1.016 ± 0.0033; to AATGCAGAGT, 0.983 ± 0.012.
To GGCTAAAATT belongs 0.999 ± 0.042; to TATGAGAGAG, 1.03 ± 0.02; to CGCATTTGCT, 1.15 ± 0.07.
With TTTTGAACAA the figure was 1.02 ± 0.039.
With TGTGCCTGCT, the switch fluorescence ratio came out at 1 ± 0.043.
With TGAGTTGTGT the figure was 1.03 ± 0.075; with AATATTTAGA, 0.9837 ± 0.0059.
To GATCGAGGTC belongs 1.0474 ± 0.001; to GTTCCGGGGT, 1.05 ± 0.05; to CGGGGGTTCA, 1.01 ± 0.035.
With TAAAGTTAAA the figure was 1 ± 0.048; with ATAAATGCCG, 0.961 ± 0.12; with GAGGATGGGG, 0.977 ± 0.039.
ATGCTAAGCT: the switch fluorescence ratio is 1.013 ± 0.0096.
With AGTAGGTG the figure was 1.05 ± 0.04.
To GGGTAGTCCG belongs 0.9937 ± 0.007.
With TTAAGTAATG the figure was 1.002 ± 0.0016.
Consider TGCCGGGGAT, for which the switch fluorescence ratio worked out at 1.01 ± 0.015.
Take CGTGTGGTTT: the switch fluorescence ratio turned out to be 1.03 ± 0.037.
With GGGATTTCTG the figure was 1.03 ± 0.04.
With TTAGTCTTGA the figure was 0.9796 ± 0.0028; with TTCCCCGGTG, 1.21 ± 0.24; with TTATGCAGGA, 0.955 ± 0.057.
With GAAGGGGACT the figure was 1.04 ± 0.076; with CGGAGTCCGG, 1.04 ± 0.059; with ACGGTAACGC, 1.02 ± 0.011.
As to GCACTGGTAT, the switch fluorescence ratio stood at 1.05 ± 0.024.
To GTGTTGAGGC belongs 0.974 ± 0.05; to TGTAGGGACG, 0.957 ± 0.12.
With GAACATTGAG the figure was 1.019 ± 0.0034; with TGCTTTTGTC, 1.01 ± 0.078.
To AGTTTTATCA belongs 0.97 ± 0.015; to AGTTGTTACA, 1.01 ± 0.032.
For the sequence AAACGGGAG, the switch fluorescence ratio was 1.032 ± 0.0067.
With GGAGTCGTCC the figure was 1.01 ± 0.024; with TATAATACTT, 1.026 ± 0.0038; with TTGGAGAAGG, 0.998 ± 0.018.
With AGGGAGGCTC the figure was 1 ± 0.057; with TGAGTCTTCG, 1.03 ± 0.017; with ATAGGATGCC, 0.999 ± 0.019.
With GATGCCTTTG the figure was 0.994 ± 0.018; with GCGGTTCGAG, 0.9872 ± 0.0033.
Turning to AGGGAAGTTT, the switch fluorescence ratio came out at 1.03 ± 0.084.
As to CAATGTAAGA, the switch fluorescence ratio is 0.989 ± 0.012.
To GCTAGATGGG belongs 1.01 ± 0.034; to GGTTGTAAAA, 0.9867 ± 0.0092.
With TTGGGGTCAG the figure was 1 ± 0.038; with ATTTGACGGT, 1.07 ± 0.11; with GGTGTAGTAT, 0.9759 ± 0.008.
To AGTTCGTAGT belongs 1.03 ± 0.049; to GATATCGATG, 1.029 ± 0.0089.
Consider ATGGTATCGT, for which the switch fluorescence ratio worked out at 0.986 ± 0.018.
With ATGGTGGATG the figure was 0.9626 ± 0.0052.
To TTCGAGCTTC belongs 1.07 ± 0.034; to TCCTGCAAGG, 1.07 ± 0.05; to GTCTTTTGTG, 1.31 ± 0.43.
With TTCCTCCCCC the figure was 1.94 ± 0.68; with TATGGGGGTT, 0.987 ± 0.022.
For the sequence TTAGCGGT, the switch fluorescence ratio came out at 1.004 ± 0.0093.
With CGGGGCACAG the figure was 1.005 ± 0.0014; with AGTCGACGTA, 1.04 ± 0.089; with TTTTACATTC, 1.03 ± 0.056.
With CTATCTGTTT the figure was 0.9561 ± 0.002; with CGCGGGGGTT, 1.03 ± 0.035.
With TAGGGGTTCA the figure was 1.013 ± 0.002; with TCATACTGTG, 1.03 ± 0.014.
For AATGAACGGG, the switch fluorescence ratio was 0.981 ± 0.0089.
To TGGGTCAATG belongs 0.9822 ± 0.0078; to CGCTGGAACT, 1.0166 ± 0.00022.
With TTTTGAAGCG the figure was 0.99 ± 0.024; with TAAAGCGGGC, 1.05 ± 0.043; with GGTTGTGGCT, 0.9883 ± 0.0059.
On to GGGGAATAGG, for which the switch fluorescence ratio is 0.9962 ± 0.0084.
With CTACGGCATA the figure was 3.11 ± 0.11; with ACATTGATAT, 1.01 ± 0.011.
Consider TAGATTTGTA, for which the switch fluorescence ratio was found to be 1.01 ± 0.021.
To CGGTAACCTT belongs 1.31 ± 0.44; to CTCTCACTGC, 1.32 ± 0.05; to CGCGGAGATG, 1.01 ± 0.035.
With TTATTTTCTG the figure was 1 ± 0.014.
To TCAAGGCGAT belongs 1.09 ± 0.042.

The values above are taken from the supplement of paper PMC10126150.
